Experimental data: US20250333501A1 (University of California, published 2025)

T1: CLDN6 endogenously expressed by human cancer cell lines (ARK2, OVCA429) (human, UniProt P56747 1-220)
T1 construct: Untagged endogenous protein; also called Endogenous CLDN6+
T1 sequence: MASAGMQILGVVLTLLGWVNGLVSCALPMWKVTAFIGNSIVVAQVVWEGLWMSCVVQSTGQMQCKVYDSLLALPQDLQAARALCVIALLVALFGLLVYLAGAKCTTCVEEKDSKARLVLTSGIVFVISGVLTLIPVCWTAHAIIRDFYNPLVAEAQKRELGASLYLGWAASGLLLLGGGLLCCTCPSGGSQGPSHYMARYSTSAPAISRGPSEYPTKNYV

T2: human CLDN6 fused to GFP, expressed on engineered HEK293T cells (HEK293T-CLDN6-mGFP) (human, UniProt P56747 1-220)
T2 construct: It calls residues 1-21 a signal peptide; also called Claudin-6; HEK293T-CLDN6-mGFP Artificial CLDN6+; not shown: mGFP tag
T2 sequence: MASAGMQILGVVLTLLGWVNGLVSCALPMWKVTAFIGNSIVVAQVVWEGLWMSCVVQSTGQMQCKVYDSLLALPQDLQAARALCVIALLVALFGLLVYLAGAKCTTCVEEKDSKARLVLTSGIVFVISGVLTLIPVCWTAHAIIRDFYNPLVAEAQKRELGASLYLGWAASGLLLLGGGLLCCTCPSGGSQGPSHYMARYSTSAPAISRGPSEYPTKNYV


Experiments:
[1] = biological target: T1, CLDN6 endogenously expressed by human …; experiment: FACS, AF647-labelled mAb, OVCA429 cells
Protocol: (§1) Antibodies were purified and cell surface binding of the antibodies to CLDN6 and the antibody IC₅₀ were determined by FACS in which CLDN6 antibodies were directly conjugated with Alexa Fluor® 647 NHS Ester (Succinimidyl Ester), Cat #A20106 (ThermoFisher Scientific) following the manufacturer's protocol. CLDN6 antibodies were tested from 0.32 nM to 1000 nM (serial dilution 1:5, 6 points) in a 50 μl volume with 150,000 cells system.
(§2) CLDN6-expressing cells were used in FACS assays to determine the CLDN6 antibody's ability to bind to CLDN6 on the surface of cells and to cross-react with other CLDN family members. HEK293 T cells engineered to express human CLDN6 fused to GFP, mouse CLDN6 fused to GFP, CLDN9-GFP, CLDN4-GFP, or CLDN3-GFP, or GFP alone (without CLDN6) were used as artificial models of CLDN6 expression. ARK2, OVCA429, LS513 and MCF7 cells were used as endogenous models of CLDN6 expression, as well as models for CLDN3/4 expression.
(§3) For each type of cell tested and for each mAb, cells were detached from the surface of the culture flasks by EDTA (instead of trypsin) in order to protect the cell surface proteins. The detached cells were then incubated with Alexa Fluor®-labeled CLDN6 mAbs for 30 min in the dark on ice at a pre-determined concentration. The CLDN6 mAbs were directly labeled with Alexa Fluor® 647 NHS Ester (Succinimidyl Ester). After washing, the cells were read by a BD Accuri™ Flow Cytometer C6 to detect antibody-antigen protein binding in channel FL4H. Each antibody was tested at varied concentrations to establish a dose-fluorescence curve. The EC50/IC50 of the antibodies (the concentration of the antibody at which half the max value were calculated based on the values of FL4H (gated in viable singlet cells) using the Very Simple IC50 Tool kit available online which allows biological dose-response data to be plotted and fitted to curve types to give the EC50/IC50. The max value was the lowest concentration of the antibody at which fluorescence maxes out. The antibodies were also screened for their ability to cross-react with other CLDN proteins such as CLDN9, CLDN3, and CLDN4. These values were used to determine each antibody's relative affinity among the set of antibodies tested. Cross-reactivity data were obtained using a similar methodology, but with cells having a different expression profile for CLDN6, CLDN3, CLDN4 and CLDN9.

[2] = biological target: T2, human CLDN6 fused to GFP, expressed on …; experiment: FACS, AF647-labelled mAb, HEK293T-CLDN6-mGFP cells
Protocol: as §1, §2, §3

[3] = biological target: T1, CLDN6 endogenously expressed by human …; experiment: FACS, AF647-labelled mAb, ARK2 cells
Protocol: as §1, §2, §3

[4] = biological target: T1, CLDN6 endogenously expressed by human …; experiment: FACS, 0.3 µg Ab, ARK2 cells
Protocol: (§4) FACS assays were also carried out to determine relative antigen binding strengths of the humanized antibodies (at either 1.5 μg or 0.3 μg) for binding to CLDN6 as expressed by the indicated cancer cell lines. 2nd Ab only was used as a negative control.

[5] = biological target: T1, CLDN6 endogenously expressed by human …; experiment: FACS, 1.5 µg Ab, ARK2 cells
Protocol: as §4

[6] = biological target: T1, CLDN6 endogenously expressed by human …; experiment: FACS, 1.5 µg Ab, OVCA429 cells
[7] = biological target: T2, human CLDN6 fused to GFP, expressed on …; experiment: FACS, 1.5 µg Ab, 293T clone with human CLDN6
Procedure, shortened: (§5)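 Humanized antibodies were tested by flow cytometry, essentially as in the source's direct-binding protocol, on engineered 293T clones expressing human CLDN6. Each antibody was used at 0.3 µg or 1.5 µg. In that protocol, EDTA-detached cells were incubated with Alexa Fluor 647 NHS ester-labelled antibody for 30 min on ice in the dark, washed and read on a BD Accuri C6 in channel FL4H. Fluorescence gives relative antigen binding strength.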

[8] = biological target: T2, human CLDN6 fused to GFP, expressed on …; experiment: FACS, 0.3 µg Ab, 293T clone with human CLDN6
Procedure, shortened: as §5

Row | Binder | EC50 [1] [nM] | EC50 [2] [nM] | EC50 [3] [nM] | FACS fluorescence [4] | FACS fluorescence [5] | FACS fluorescence [6] | FACS fluorescence [7] | FACS fluorescence [8]
1 | AB1 (antibody, V domains shown, Labelled with Alexa Fluor 647 NHS ester for FACS) VH: QVQLQQSAAELARPGASVKMSCKASGYTFTTYTMHWVKQRPGQGLEWIGFINPSSGYTDYNQKFKDRTTLTADKSSSTVYMQLSSLTSEDSAVYYCANGDYYVAYWGQGTLVTVSA VL: QIVLTQSPAIMSASLGERVTMTCTASSSVSSTYFHWYQQKPGSSPKLWIYSTSNLASGVPRRFSGSASGTSYSLTISSMEAEDAATYYCHQYHRSPLTFGAGTKLELK | 84 | 109 | 105 |  |  |  |  | 
2 | AB3 (antibody, V domains shown, Labelled with Alexa Fluor 647 for FACS and with Texas Red-X in the internalization assay) VH: EVKLEESGGGLVQPGGSMKLSCVASGFTFSNYWMNWVRQSPEKGLEWVAQIRLKSDNYATHYAESVKGRFTISRDDSKRSVYLQMNNLRAEDTGTYYCNDGPPSGCWGQGTTLIVSS VL: DIQMTQSPASLSASVGETVTITCRISENIYSYLAWYQQKQGKSPQLLVYNAKILVEGVPSRFSGSGSGTQFSLKINSLQPEDFGNYYCQHHYTVPWTFGGGTKLEIK | 1100 | 604 | 1650 |  |  |  |  | 
3 | AB2 (antibody, V domains shown, Labelled with Alexa Fluor 647 NHS ester for FACS) VH: EVKLEESGGGLVQPGGSMKLSCVASGFTFSDYWMNWVRQSPEKGLEWVAQIRLKSDNYATHYAESVKGRFTISRDDSKRSVYLQMNNLRAEDTGTYYCNDGPPSGCWGQGTTLIVSS VL: DIQMTQSPASLSASVGETVTITCRISENIYSYLAWYQQKQGKSPQLLVYNAKILVEGVPSRFSGSGSGTQFSLKINSLQPEDFGNYYCQHHYTVPWTFGGGTKLEIK | 912 | 182 | 1360 |  |  |  |  | 
4 | AB4 (antibody, V domains shown, Labelled with Alexa Fluor 647 for FACS and with Texas Red-X in the internalization assay) VH: QVQLQQSGAELARPGASVKMSCKASGYTFTSYTMHWIKQRPGQGQEWIGYINPSSTYTHYIKKFKDKATLTADKSSSTAYMQLRSLTSEDSAVYYCSRGELGGFAYWGQGTLVTVSA VL: DVVMTQTPLSLPVSLGDQASISCRSSQSLVHSDGNTYLNWYLQKPGQSPKLLIYKVSNRFSGVPDRFSGSGSGTDFTLKIRRVEAEDLGVYFCSQSTHVPYTFGGGTKLEIK | 168 | 17 | 48 |  |  |  |  | 
5 | AB9-3 (antibody, V domains shown, also called Humanized AB 9-3) VH: QVQLVQSGAEVKKPGASVKMSCKASGYRFTDYNMHWVRQAPGQGLEWIGYINPNNGGTNYAQKFQGRATLTVDTSTSTAYMELSSLRSEDTAVYYCARDYLYFFDCWGQGTLLTVSS VL: DIQMTQSPSSLSASVGDRVTITCLASQTIGTWLAWYQQKPGKAPKLLIYAAASLADGVPSRFSGSGSGTDFTFTISSLQPEDFVTYYCQQLYSIPRTFGQGTKLEIK |  |  |  | 1140 | 1470 | 1260 | 24600 | 9500
6 | AB9-4 (antibody, V domains shown, also called Humanized AB 9-4) VH: QVQLVQSGAEVKKPGASVKMSCKASGYRFTDYNMHWVRQAPGQGLEWIGYINPNNGGTNYAQKFQGRATLTVDTSTSTAYMELSSLRSEDTAVYYCARDYLYFFDCWGQGTLLTVSS VL: DIQMTQSPSSLSASVGDRVTITCRASQTIGTWLAWYQQKPGKAPKLLIYAAASLADGVPSRFSGSGSGTDFTFTISSLQPEDFVTYYCQQLYSIPRTFGQGTKLEIK |  |  |  | 1120 | 1550 | 1110 | 34300 | 15300
7 | AB11-chim (antibody, V domains shown, 'chim' is the pre-humanized form (parental variable regions); also called pre-humanized (chimeric) form of AB11) VH: DVQLVESGGGLVQPRGSRKLSCAASGFTFSSFGMHWVRQAPEKGLEWVAYISSDSRTIYYADTVKGRFTISRDNPTNTLFLQMTSLRSEDTAMYYCARDYGRTYEAYWGQGTLVTVSA VL: DIVLTQSPASLAVSLGQRATISCRASKSVSTSGYSYIHWYQQKPGQPPKLLIYLASNLESGVPARFSGSGSGTDFTLNIHPVEEEDAATYYCQHSRELPLTFGAGTKLELK |  |  |  | 1320 | 1260 | 2440 | 3490 | 1670
8 | AB11-2 (antibody, V domains shown, also called Humanized AB 11-2) VH: EVQLVESGGGLVQPGGSLRLSCAASGFTFSSFGMHWVRQAPGKGLEWVAYISSDSRTIYYADSVKGRFTISRDNAKNSLYLQMNSLRAEDTAVYYCARDYGRTYEAYWGQGTLVTVSS VL: DIVMTQSPDSLAVSLGERATINCRASKSVSTSGYSYIHWYQQKPGQPPKLLIYLASNLESGVPDRFSGSGSGTDFTLTISSLQAEDVAVYYCQHSRELPLTFGQGTKLEIK |  |  |  | 1400 | 1940 | 2690 | 2560 | 1290
9 | AB11-3 (antibody, V domains shown, also called Humanized AB 11-3) VH: EVQLVESGGGLVQPGGSLRLSCAASGFTFSSFGMHWVRQAPGKGLEWVAYISSDSRTIYYADSVKGRFTISRDNAKNSLYLQMNSLRAEDTAVYYCARDYGRTYEAYWGQGTLVTVSS VL: DIVLTQSPDSLAVSLGERATINCRASKSVSTSGYSYIHWYQQKPGQPPKLLIYLASNLESGVPDRFSGSGSGTDFTLTISSVQAEDVAVYYCQHSRELPLTFGQGTKLELK |  |  |  | 1320 | 1540 | 2200 | 2360 | 1010
10 | AB16 (antibody, V domains shown, Labelled with Alexa Fluor 647 NHS ester for FACS) VH: EVRLVESGGGLMQPGGSLKLPCAASGFPFSSSAMSWVRQTPEKRLEWVASINSDGNTYYPDSVKGRFTISRDSARNILYLQMSSLRSEDTAMYYCTRNGDYRYDEFAYWGQGTLVTVSA VL: not shown |  | ≥ 5000 |  |  |  |  |  | 
11 | AB17 (antibody, V domains shown, Labelled with Alexa Fluor 647 NHS ester for FACS) VH: QVQLQQSGAELAKPGASVKMSCKASGYTFTGYWMHWVKQRPGQGLEWLGYINPSTGYTESNQKFKDKATLTADKSSTTAYMQLRSLTPEDSAVYYCAREGITTVLVDYWGQGTTLTVSS VL: QIVLTQSPAIMSASLGERVTMTCTASSSVSSSYLHWYQQKPGSSPKLWIYSTSNLASGVPARFSGSGSGTSYSLTISSMEAEDAATYYCHQYHRSPPTFGAGTKLELK |  | 2650 |  |  |  |  |  | 
12 | AB19 (antibody, V domains shown, Labelled with Alexa Fluor 647 NHS ester for FACS) VH: EVQLQQSGPELVKPGGSMKISCKASGYSFTGYTMNWVKRSHGKNLEWIGLINPYNGVTTYNQNFKGKATLAVDKSSSTAYMELLGLTSEDSAVYYCTRDPLYYGYRDSTMDYWGQGTSVTVSS VL: NIMMTQSPSSLAVSAGEKVTMSCKSSQSVLFSSNQKNYLAWYQQKPGQSPRLLIYWASTRESGVPDRFTGSGSGTDFTLTISNVQAEDLAVYYCHQYLSSRTFGAGTKLELK |  | ≥ 5000 |  |  |  |  |  | 
